Data taken from patent US20140287471A1, “VARIANT CBH I POLYPEPTIDES WITH REDUCED PRODUCT INHIBITION” (BP CORPORATION NORTN AMERICA INC., priority 2011, published 2014).
Read-outs that look alike come from different tables or passages of the source.

Tests used:
[1] = 4-MUL cellobiose tolerance/inhibition assay, dose-response IC50 (Example 2); type: biochemical; settings: for IC50: averaged IC50 from Tables 8-11; for 268 +411A Expected IC50: expected IC50 (additive values of single mutations); for 268_+411A Synergistic**↑: measured versus expected additive IC50
How it was run: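 CBH I variant supernatants (5 μg/mL final, or undiluted if lower) on 0.5 mM 4-MUL in 100 mM MES pH 6 with 25 mM gluconolactone, fluorescence ex/em 365/450 nm. Activity measured at 6–8 cellobiose levels up to 100 mM; IC50 from four-parameter fit, bottom constrained to knockout background.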

[2] = 4-MUL assay, specific activity (Example 2); type: biochemical; settings: for 268— +411 A Measured Specific Activity (SA) / 268— +411 A Δ SA* (change in specific activity; ratio of variant: WT): double mutant 268X+411A; for 268— Measured Specific Activity (SA) / 268— Δ SA* (change in specific activity; ratio of variant: WT): 268 single substitution
How it was run: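 CBH I variant supernatants (5 μg/mL final) hydrolysed 0.5 mM 4-MUL in 100 mM MES pH 6 with 25 mM gluconolactone to block BG, with or without cellobiose. Fluorescence (ex/em 365/450 nm) followed over the first 15 min for initial rates, plus a 1 h endpoint before and after carbonate quench. Specific activity from 4-MU standards and HPLC protein quantification.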

[3] = double mutant 268X+411A, read-out: 268_+411A Measured (merged IC50)
[4] = 268 single substitution, read-out: 268— Measured (merged IC50)

Row | Molecule | IC50 [1, 3] | 268— +411 A Measured Specific Activity (SA) [2] | 268— +411 A Δ SA* (change in specific activity; ratio of variant: WT) [2] | 268 +411A Expected IC50 ([1]; double mutant 268X+411A) | 268_+411A Synergistic**↑ ([1]; double mutant 268X+411A) | also measured
1 | 268Gln+411A (protein, UniProt P62694 18-513, looked up, variant R268Q R411A) Exoglucanase 1: QSACTLQSETHPPLTWQKCSSGGTCTQQTGSVVIDANWRWTHATNSSTNCYDGNTWSSTLCPDNETCAKNCCLDGAAYASTYGVTTSGNSLSIGFVTQSAQKNVGARLYLMASDTTYQEFTLLGNEFSFDVDVSQLPCGLNGALYFVSMDADGGVSKYPTNTAGAKYGTGYCDSQCPRDLKFINGQANVEGWEPSSNNANTGIGGHGSCCSEMDIWEANSISEALTPHPCTTVGQEICEGDGCGGTYSDNQYGGTCDPDGCDWNPYRLGNTSFYGPGSSFTLDTTKKLTVVTQFETSGAINRYYVQNGVTFQQPNAELGSYSGNELNDDYCTAEEAEFGGSSFSDKGGLTQFKKATSGGMVLVMSLWDDYYANMLWLDSTYPTNETSSTPGAVAGSCSTSSGVPAQVESQSPNAKVTFSNIKFGPIGSTGNPSGGNPPGGNRGTTTTRRPATTTGSSPGPTQSHYGQCGGIGYSGPTVCASGTTCQVLNPYYSQCL | 9.13 mM | 2.13 μmol 4 MU/min/mg CBH I | 2.8 |  |  | 
2 | 268Ser+411A (protein, UniProt P62694 18-513, looked up, variant R268S R411A) Exoglucanase 1: QSACTLQSETHPPLTWQKCSSGGTCTQQTGSVVIDANWRWTHATNSSTNCYDGNTWSSTLCPDNETCAKNCCLDGAAYASTYGVTTSGNSLSIGFVTQSAQKNVGARLYLMASDTTYQEFTLLGNEFSFDVDVSQLPCGLNGALYFVSMDADGGVSKYPTNTAGAKYGTGYCDSQCPRDLKFINGQANVEGWEPSSNNANTGIGGHGSCCSEMDIWEANSISEALTPHPCTTVGQEICEGDGCGGTYSDNSYGGTCDPDGCDWNPYRLGNTSFYGPGSSFTLDTTKKLTVVTQFETSGAINRYYVQNGVTFQQPNAELGSYSGNELNDDYCTAEEAEFGGSSFSDKGGLTQFKKATSGGMVLVMSLWDDYYANMLWLDSTYPTNETSSTPGAVAGSCSTSSGVPAQVESQSPNAKVTFSNIKFGPIGSTGNPSGGNPPGGNRGTTTTRRPATTTGSSPGPTQSHYGQCGGIGYSGPTVCASGTTCQVLNPYYSQCL | 9.57 mM | 1.59 μmol 4 MU/min/mg CBH I | 2.1 | 1.67 mM | 5.7 | 
3 | 268Cys+411A (protein, UniProt P62694 18-513, looked up, variant R268C R411A) Exoglucanase 1: QSACTLQSETHPPLTWQKCSSGGTCTQQTGSVVIDANWRWTHATNSSTNCYDGNTWSSTLCPDNETCAKNCCLDGAAYASTYGVTTSGNSLSIGFVTQSAQKNVGARLYLMASDTTYQEFTLLGNEFSFDVDVSQLPCGLNGALYFVSMDADGGVSKYPTNTAGAKYGTGYCDSQCPRDLKFINGQANVEGWEPSSNNANTGIGGHGSCCSEMDIWEANSISEALTPHPCTTVGQEICEGDGCGGTYSDNCYGGTCDPDGCDWNPYRLGNTSFYGPGSSFTLDTTKKLTVVTQFETSGAINRYYVQNGVTFQQPNAELGSYSGNELNDDYCTAEEAEFGGSSFSDKGGLTQFKKATSGGMVLVMSLWDDYYANMLWLDSTYPTNETSSTPGAVAGSCSTSSGVPAQVESQSPNAKVTFSNIKFGPIGSTGNPSGGNPPGGNRGTTTTRRPATTTGSSPGPTQSHYGQCGGIGYSGPTVCASGTTCQVLNPYYSQCL |  |  | 0.2 | 1.56 mM | 14.4 | 
4 | 268Pro+411A (protein, UniProt P62694 18-513, looked up, variant R268P R411A) Exoglucanase 1: QSACTLQSETHPPLTWQKCSSGGTCTQQTGSVVIDANWRWTHATNSSTNCYDGNTWSSTLCPDNETCAKNCCLDGAAYASTYGVTTSGNSLSIGFVTQSAQKNVGARLYLMASDTTYQEFTLLGNEFSFDVDVSQLPCGLNGALYFVSMDADGGVSKYPTNTAGAKYGTGYCDSQCPRDLKFINGQANVEGWEPSSNNANTGIGGHGSCCSEMDIWEANSISEALTPHPCTTVGQEICEGDGCGGTYSDNPYGGTCDPDGCDWNPYRLGNTSFYGPGSSFTLDTTKKLTVVTQFETSGAINRYYVQNGVTFQQPNAELGSYSGNELNDDYCTAEEAEFGGSSFSDKGGLTQFKKATSGGMVLVMSLWDDYYANMLWLDSTYPTNETSSTPGAVAGSCSTSSGVPAQVESQSPNAKVTFSNIKFGPIGSTGNPSGGNPPGGNRGTTTTRRPATTTGSSPGPTQSHYGQCGGIGYSGPTVCASGTTCQVLNPYYSQCL | 8.57 mM | 2.16 μmol 4 MU/min/mg CBH I | 2.8 | 1.7 mM | 5.1 | 
5 | 268Ala (protein, UniProt P62694 18-513, looked up, variant R268A) Exoglucanase 1: QSACTLQSETHPPLTWQKCSSGGTCTQQTGSVVIDANWRWTHATNSSTNCYDGNTWSSTLCPDNETCAKNCCLDGAAYASTYGVTTSGNSLSIGFVTQSAQKNVGARLYLMASDTTYQEFTLLGNEFSFDVDVSQLPCGLNGALYFVSMDADGGVSKYPTNTAGAKYGTGYCDSQCPRDLKFINGQANVEGWEPSSNNANTGIGGHGSCCSEMDIWEANSISEALTPHPCTTVGQEICEGDGCGGTYSDNAYGGTCDPDGCDWNPYRLGNTSFYGPGSSFTLDTTKKLTVVTQFETSGAINRYYVQNGVTFQQPNAELGSYSGNELNDDYCTAEEAEFGGSSFSDKGGLTQFKKATSGGMVLVMSLWDDYYANMLWLDSTYPTNETSSTPGAVRGSCSTSSGVPAQVESQSPNAKVTFSNIKFGPIGSTGNPSGGNPPGGNRGTTTTRRPATTTGSSPGPTQSHYGQCGGIGYSGPTVCASGTTCQVLNPYYSQCL |  |  |  |  |  | IC50 [1, 4]: 0.57 mM; 268— Measured Specific Activity (SA) [2]: 2.97 μmol 4 MU/min/mg CBH I; 268— Δ SA* (change in specific activity; ratio of variant: WT) [2]: 3.9
6 | 268A+411Ile (protein, UniProt P62694 18-513, looked up, variant R268A R411I) Exoglucanase 1: QSACTLQSETHPPLTWQKCSSGGTCTQQTGSVVIDANWRWTHATNSSTNCYDGNTWSSTLCPDNETCAKNCCLDGAAYASTYGVTTSGNSLSIGFVTQSAQKNVGARLYLMASDTTYQEFTLLGNEFSFDVDVSQLPCGLNGALYFVSMDADGGVSKYPTNTAGAKYGTGYCDSQCPRDLKFINGQANVEGWEPSSNNANTGIGGHGSCCSEMDIWEANSISEALTPHPCTTVGQEICEGDGCGGTYSDNAYGGTCDPDGCDWNPYRLGNTSFYGPGSSFTLDTTKKLTVVTQFETSGAINRYYVQNGVTFQQPNAELGSYSGNELNDDYCTAEEAEFGGSSFSDKGGLTQFKKATSGGMVLVMSLWDDYYANMLWLDSTYPTNETSSTPGAVIGSCSTSSGVPAQVESQSPNAKVTFSNIKFGPIGSTGNPSGGNPPGGNRGTTTTRRPATTTGSSPGPTQSHYGQCGGIGYSGPTVCASGTTCQVLNPYYSQCL |  |  |  |  |  | IC50 ([1]; double mutant 268A+411X, read-out: 268A+411— Measured (merged IC50)): 32.7 mM; 268A+411— Δ SA* (change in specific activity; ratio of variant: WT) ([2]; double mutant 268A+411X): 0.5
7 | 268Leu (protein, UniProt P62694 18-513, looked up, variant R268L) Exoglucanase 1: QSACTLQSETHPPLTWQKCSSGGTCTQQTGSVVIDANWRWTHATNSSTNCYDGNTWSSTLCPDNETCAKNCCLDGAAYASTYGVTTSGNSLSIGFVTQSAQKNVGARLYLMASDTTYQEFTLLGNEFSFDVDVSQLPCGLNGALYFVSMDADGGVSKYPTNTAGAKYGTGYCDSQCPRDLKFINGQANVEGWEPSSNNANTGIGGHGSCCSEMDIWEANSISEALTPHPCTTVGQEICEGDGCGGTYSDNLYGGTCDPDGCDWNPYRLGNTSFYGPGSSFTLDTTKKLTVVTQFETSGAINRYYVQNGVTFQQPNAELGSYSGNELNDDYCTAEEAEFGGSSFSDKGGLTQFKKATSGGMVLVMSLWDDYYANMLWLDSTYPTNETSSTPGAVRGSCSTSSGVPAQVESQSPNAKVTFSNIKFGPIGSTGNPSGGNPPGGNRGTTTTRRPATTTGSSPGPTQSHYGQCGGIGYSGPTVCASGTTCQVLNPYYSQCL |  |  |  |  |  | IC50 [1, 4]: 0.45 mM; 268— Measured Specific Activity (SA) [2]: 1.83 μmol 4 MU/min/mg CBH I; 268— Δ SA* (change in specific activity; ratio of variant: WT) [2]: 2.4
